{"source": "patent US20160146827", "key": {"[1]": {"tested_on": "Venus-thrombin-LUMP (LUMP fused to Venus via an 11-residue linker ASLVPRGSRGS that harbors a thrombin cleavage site)"}, "[2]": {"tested_on": "mRuby-thrombin-fLov2 (fLov2 fused to mRuby via an 11-residue linker ASLVPRGSRGS that harbors a thrombin cleavage site)"}}}
{"substance": "thrombin protease", "values": [{"measurement": "FA value of LUMP in the intact substrate", "setting": "[1]", "result": "FA values for the 51-kDa LUMP-Venus substrate of 0.255±0.003"}, {"measurement": "FA value of LUMP in the proteolyzed sensor", "setting": "[1]", "result": "decreases to 0.166±0.001 in the proteolyzed sensor"}, {"measurement": "donor/acceptor ratio of fluorescence emission during proteolysis", "setting": "[1]", "result": "donor/acceptor ratio increasing ~4.7-fold"}, {"measurement": "fluorescence emission spectra against time after addition of thrombin", "setting": "[2]", "result": "dramatic increase in fLov2 fluorescence and attenuation of the sensitized mRuby fluorescence"}]}
